Source: patent US20170174789A1 (Regeneron, published 2017)

T1: hAng2 (human, UniProt O15123 19-496, limits assumed)
T1 construct: Bought protein; also called angiopoietin 2
T1 sequence (looked up): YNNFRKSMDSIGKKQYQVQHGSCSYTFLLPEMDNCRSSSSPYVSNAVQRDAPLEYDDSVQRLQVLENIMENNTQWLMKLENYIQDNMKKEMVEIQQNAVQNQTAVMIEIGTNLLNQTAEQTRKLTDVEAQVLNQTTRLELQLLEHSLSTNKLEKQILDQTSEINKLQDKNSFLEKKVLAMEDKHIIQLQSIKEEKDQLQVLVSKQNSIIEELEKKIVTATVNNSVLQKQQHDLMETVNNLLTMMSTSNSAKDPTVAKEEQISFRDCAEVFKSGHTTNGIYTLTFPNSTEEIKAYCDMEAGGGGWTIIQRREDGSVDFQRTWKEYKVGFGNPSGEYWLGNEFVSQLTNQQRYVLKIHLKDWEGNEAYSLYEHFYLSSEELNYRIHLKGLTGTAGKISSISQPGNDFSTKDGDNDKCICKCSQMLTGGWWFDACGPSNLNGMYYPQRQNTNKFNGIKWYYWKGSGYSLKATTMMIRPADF

T2: mAng3 (mouse, UniProt Q9WVH6 22-509, limits assumed)
T2 construct: Bought protein; also called angiopoietin 3
T2 sequence (looked up): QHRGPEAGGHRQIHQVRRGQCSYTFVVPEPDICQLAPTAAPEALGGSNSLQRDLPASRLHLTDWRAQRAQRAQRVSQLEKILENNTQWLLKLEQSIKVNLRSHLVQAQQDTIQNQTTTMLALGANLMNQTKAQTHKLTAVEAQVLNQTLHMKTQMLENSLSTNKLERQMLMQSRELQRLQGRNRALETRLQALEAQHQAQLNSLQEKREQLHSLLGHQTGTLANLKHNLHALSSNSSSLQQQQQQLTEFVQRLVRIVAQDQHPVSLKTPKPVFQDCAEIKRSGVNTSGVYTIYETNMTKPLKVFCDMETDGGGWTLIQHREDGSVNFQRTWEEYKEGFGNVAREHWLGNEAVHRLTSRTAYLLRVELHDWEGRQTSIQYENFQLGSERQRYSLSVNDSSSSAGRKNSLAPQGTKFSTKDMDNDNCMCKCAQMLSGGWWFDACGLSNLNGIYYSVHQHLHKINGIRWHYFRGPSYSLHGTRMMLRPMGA

T3: hAng4 (human, UniProt Q9Y264 25-503, limits assumed)
T3 construct: Bought protein; also called angiopoietin 4
T3 sequence (looked up): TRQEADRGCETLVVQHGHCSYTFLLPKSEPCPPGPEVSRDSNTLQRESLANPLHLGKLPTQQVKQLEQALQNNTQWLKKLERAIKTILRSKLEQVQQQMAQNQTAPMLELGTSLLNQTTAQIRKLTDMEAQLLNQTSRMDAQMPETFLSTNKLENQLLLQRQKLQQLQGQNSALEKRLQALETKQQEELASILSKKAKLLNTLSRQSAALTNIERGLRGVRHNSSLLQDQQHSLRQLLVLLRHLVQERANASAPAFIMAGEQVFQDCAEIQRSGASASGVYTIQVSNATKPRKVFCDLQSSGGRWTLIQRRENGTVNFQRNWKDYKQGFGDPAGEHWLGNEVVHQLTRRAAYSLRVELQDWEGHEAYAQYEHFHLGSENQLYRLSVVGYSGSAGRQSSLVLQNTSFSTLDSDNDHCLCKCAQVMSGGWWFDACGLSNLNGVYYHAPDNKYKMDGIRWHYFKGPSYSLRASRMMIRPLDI


Experiments:
[1] = target: T4, hTie2 (EGF) (human, UniProt Q02763 210-344); assay: Luminex bead binding
T4 construct: Domain-deletion construct linked to Luminex beads
T4 sequence (Q02763 other isoform, or with tags, fused parts or gaps limits assumed): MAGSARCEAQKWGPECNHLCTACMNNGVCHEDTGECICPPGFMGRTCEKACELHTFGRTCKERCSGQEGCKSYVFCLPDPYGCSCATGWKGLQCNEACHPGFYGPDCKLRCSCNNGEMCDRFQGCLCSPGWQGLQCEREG
Method: (§1) For binding, 25 μl of anti-Tie2 antibody (25 μg/ml) was added to 75 μl of the above created Luminex bead mixture (3×10³ beads per construct) in binding buffer (PBS, 0.05% Tween 20, 1 mg/ml BSA, 0.05% sodium azide) into a 96 well filter plate (Millipore). Incubation was at room temperature (RT) for 90 min or overnight at 4° C. with shaking. The beads were washed 3× with washing buffer (PBS+0.05% Tween 20) resuspended in 100 μl binding buffer containing PE (phycoerythrine)-labeled anti human kappa or PE-labeled anti mouse Fab secondary antibody and incubated at RT for 45 min with shaking. Samples were washed 2× more and binding signal (MFI) for each bead was determined using a Luminex L200 or FLEXMAP3D instrument. Bead linked human Tie2 was used as positive control and bead linked human Tie1 was used to measure family cross-reactivity. In general MFI signals greater than 500 units represent significant binding.

[2] = target: T5, hTie2 (Ig1-Ig2-EGF) (human, UniProt Q02763 24-344); assay: Luminex bead binding
T5 construct: Domain-deletion construct; also used for H/D exchange
Method: as §1

[3] = target: T6, hTie2 (Ig2-EGF) (human, UniProt Q02763 121-344); assay: Luminex bead binding
T6 construct: Domain-deletion construct linked to Luminex beads
T6 sequence (Q02763 other isoform, or with tags, fused parts or gaps limits assumed): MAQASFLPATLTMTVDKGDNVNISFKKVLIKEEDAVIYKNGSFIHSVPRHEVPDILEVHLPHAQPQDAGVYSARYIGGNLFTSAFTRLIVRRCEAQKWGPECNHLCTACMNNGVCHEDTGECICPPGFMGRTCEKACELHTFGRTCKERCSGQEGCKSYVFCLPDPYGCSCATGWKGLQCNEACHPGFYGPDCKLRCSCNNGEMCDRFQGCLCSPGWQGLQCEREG
Method: as §1

[4] = target: hTie2 on 293-Tie2/SRE-Luc cells (human, UniProt Q02763 23-1124); assay: cell-based or functional assay
[5] = target: T7, mTie2-hFc (mouse); assay: SPR Biacore 25C, mAb captured
T7 construct: also called mouse Tie2
Method: (§2) (Tables 3-6). Measurements were conducted on a Biacore 2000 or T200 instrument.
(§3) For antibodies with a mouse constant region (designated H1M or H2M), antibodies were immobilized onto an anti-mouse Fc sensor surface and different concentrations of human, mouse or rat Tie2 constructs (hTie2-His, mTie2-hFc and rTie2-hFc) were injected over the antibody captured surface. For antibodies in the human IgG format (designated H1H or H4H), either an anti-human Fc sensor surface (hTie2-His and hTie2-mFc) or anti-human Fab sensor surface (mTie2-hFc and rTie2-hFc) was employed depending on the Tie-2 construct applied to the antibody captured surface. Amino acid sequences of the constructs used in this Example are as follows: hTie2-His (SEQ ID NO:2); hTie2-hFc (SEQ ID NO:3); hTie2-mFc (SEQ ID NO:4); rTie2-hFc (SEQ ID NO:5); and mTie2-hFc (SEQ ID NO:6).
(§4) Kinetic rate constants—association rate (ka) and dissociation rate (kd) were determined by fitting the real time binding sensorgrams to a 1:1 binding model with mass transport limitation using Scrubber 2.0 curve fitting software. The equilibrium dissociation constant (KD) and dissociative half-life (T½) were calculated from the kinetic rate constants as: KD (M)=kd/ka; and T½ (min)=(In2/(60*kd).).

[6] = target: T8, rTie2-hFc (rat); assay: SPR Biacore 25C, mAb captured
T8 construct: also called rat Tie2
T8 sequence (chain, as listed by the source limits assumed): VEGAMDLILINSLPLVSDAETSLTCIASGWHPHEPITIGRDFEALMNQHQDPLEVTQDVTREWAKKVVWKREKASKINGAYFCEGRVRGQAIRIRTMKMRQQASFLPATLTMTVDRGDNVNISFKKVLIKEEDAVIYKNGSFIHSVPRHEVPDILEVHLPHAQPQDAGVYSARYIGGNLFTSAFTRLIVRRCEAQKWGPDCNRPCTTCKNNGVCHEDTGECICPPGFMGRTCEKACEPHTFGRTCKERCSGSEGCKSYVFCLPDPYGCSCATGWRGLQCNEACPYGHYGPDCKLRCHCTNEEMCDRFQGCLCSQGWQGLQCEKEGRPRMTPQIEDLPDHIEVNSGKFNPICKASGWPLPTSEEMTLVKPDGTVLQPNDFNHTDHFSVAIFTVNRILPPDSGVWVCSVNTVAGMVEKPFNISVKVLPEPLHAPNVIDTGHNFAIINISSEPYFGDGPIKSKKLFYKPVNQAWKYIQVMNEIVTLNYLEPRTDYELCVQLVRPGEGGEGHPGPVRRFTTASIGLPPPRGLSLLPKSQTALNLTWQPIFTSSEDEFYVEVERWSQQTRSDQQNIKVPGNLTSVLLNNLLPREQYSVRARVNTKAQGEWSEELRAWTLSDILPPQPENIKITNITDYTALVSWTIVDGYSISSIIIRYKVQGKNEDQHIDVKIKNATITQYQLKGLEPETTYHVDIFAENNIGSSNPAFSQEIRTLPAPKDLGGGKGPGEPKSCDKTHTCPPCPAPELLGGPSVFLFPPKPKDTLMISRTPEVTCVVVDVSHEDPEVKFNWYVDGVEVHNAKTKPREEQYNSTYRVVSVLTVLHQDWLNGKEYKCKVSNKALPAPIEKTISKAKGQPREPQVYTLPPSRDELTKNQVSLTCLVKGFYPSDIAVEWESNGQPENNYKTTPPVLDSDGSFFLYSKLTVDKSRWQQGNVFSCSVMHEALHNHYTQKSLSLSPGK
Method: as §2, §3, §4

[7] = target: T1, hAng2; assay: Octet Red biosensor, hTie2.mFc captured on anti-mFc tips, 100 nM angiopoietin for 5 min; some tips first saturated with 300 nM H4H2055N or Control I
Method: (§5) A further set of experiments was conducted to evaluate the ability of H4H2055N to block Tie2 binding to Ang2 and other members of the angiopoietin family (Ang1, Ang3 and Ang4). In this set of experiments, an Octet Red biosensor was employed using two experimental formats. In the first format, hTie2.mFc (SEQ ID NO:4; 10 μg/ml) or a negative control was captured on anti-mFc Octet sensor tips for 5 min. The captured sensor tip surfaces were then saturated with H4H2055N or Control I antibody by dipping into wells containing 300 nM of respective monoclonal antibodies for 10 min. Finally the sensor tips were placed into wells containing 100 nM of hAng1 (R&D Systems, Inc., Minneapolis, Minn., Cat 923-AN/CF; Accession #Q5HYA0), hAng2 (R&D Systems, Inc., Minneapolis, Minn., Cat 623-AN/CF; Accession #015123), mAng3 (R&D Systems, Inc., Minneapolis, Minn., Cat 738-AN/CF; Accession #Q9WVH6) or hAng4 (R&D Systems, Inc., Minneapolis, Minn., Cat 964-AN/CF; Accession Q9Y264) for 5 min. Binding response at each step of the experiment was monitored and the binding of different angiopoietins to the monoclonal antibody saturated receptor surfaces was plotted (FIG. 2). As illustrated by FIG. 2, H4H2055N blocked the binding of all four angiopoietins to the hTie2.mFc surface.

[8] = target: T2, mAng3; assay: as above
Method: as §5

[9] = target: T3, hAng4; assay: as above
Method: as §5

| EC50, Tie2 dependent luciferase activity, 293-Tie2/SRE-Luc cells with 1 nM BowAng1 [4] | EC50, Tie2 dependent luciferase activity, 293-Tie2/SRE-Luc cells with 1 nM BowAng2 [4] | Kd [5] | T½ [5] | koff [5] | kon [5] | Kd [6] | T½ [6] | koff [6] | kon [6] | binding result [7] | binding result [8] | binding result [9] | Binder | binding result [1] | binding result [2] | binding result [3] |
| --- | --- | --- | --- | --- | --- | --- | --- | --- | --- | --- | --- | --- | --- | --- | --- | --- |
| 2.5 nM | 3.7 nM | 107 nM | 2 min | 0.00576 s⁻¹ | 53900 M⁻¹ s⁻¹ | 55.3 nM | 2 min | 0.00618 s⁻¹ | 112000 M⁻¹ s⁻¹ | – | – | – | H1H2332B (antibody, V domains shown, Tested as H1H2332B (human IgG format, H1H prefix)) VH: QVQLQESGPGLVKPSETLSLTCTVSGASISSYYWTWFRQPPGQGLEWIGYIYYSGSTNYNPSLKSRVTISVDTSMNQFSLKLTSVTAADTAVYYCARQGGYTSSLFDYWGQGTLVTVSS VL: DIQMTQSPSSLSASVGDRVTITCRASQSISSYLNWYQQKPGKAPKLLIYVVSSLQSGVPSRFSGSGSGTDFTLTISSLQPEDFATYYCQQSYSIPWTFGQGTKVEIK | no binding (tested: MFI >500 = significant binding) | no binding (tested: MFI >500 = significant binding) | no binding (tested: MFI >500 = significant binding) |
| – | – | – | – | – | – | – | – | – | – | binds | binds | binds | hTie2-mFc (Fc fusion) AMDLILINSLPLVSDAETSLTCIASGWRPHEPITIGRDFEALMNQHQDPLEVTQDVTREWAKKVVWKREKASKINGAYFCEGRVRGEAIRIRTMKMRQQASFLPATLTMTVDKGDNVNISFKKVLIKEEDAVIYKNGSFIHSVPRHEVPDILEVHLPHAQPQDAGVYSARYIGGNLFTSAFTRLIVRRCEAQKWGPECNHLCTACMNNGVCHEDTGECICPPGFMGRTCEKACELHTFGRTCKERCSGQEGCKSYVFCLPDPYGCSCATGWKGLQCNEACHPGFYGPDCKLRCSCNNGEMCDRFQGCLCSPGWQGLQCEREGIPRMTPKIVDLPDHIEVNSGKFNPICKASGWPLPTNEEMTLVKPDGTVLHPKDFNHTDHFSVAIFTIHRILPPDSGVWVCSVNTVAGMVEKPFNISVKVLPKPLNAPNVIDTGHNFAVINISSEPYFGDGPIKSKKLLYKPVNHYEAWQHIQVTNEIVTLNYLEPRTEYELCVQLVRRGEGGEGHPGPVRRFTTASIGLPPPRGLNLLPKSQTTLNLTWQPIFPSSEDDFYVEVERRSVQKSDQQNIKVPGNLTSVLLNNLHPREQYVVRARVNTKAQGEWSEDLTAWTLSDILPPQPENIKISNITHSSAVISWTILDGYSISSITIRYKVQGKNEDQHVDVKIKNATIIQYQLKGLEPETAYQVDIFAENNIGSSNPAFSHELVTLPESQAPADLGGGKGPGEPRGPTIKPCPPCKCPAPNLLGGPSVFIFPPKIKDVLMISLSPIVTCVVVDVSEDDPDVQISWFVNNVEVHTAQTQTHREDYNSTLRVVSALPIQHQDWMSGKEFKCKVNNKDLPAPIERTISKPKGSVRAPQVYVLPPPEEEMTKKQVTLTCMVTDFMPEDIYVEWTNNGKTELNYKNTEPVLDSDGSYFMYSKLRVEKKNWVERNSYSCSVVHEGLHNHHTTKSFSRTPGK | – | – | – |
